In PMC6303327:

What was measured:
[1] = target: Rfa3 OB domain (DBD-E), residues 1-99, without the C-terminal trimerisation helix (S. cerevisiae) (UniProt P26755); experiment: MST; as the MST without ssDNA, but in the presence of excess ssDNA (dT10 at 2 µM in each binding reaction; grey trace); replicated twice; apparent EC50 from the Hill equation
[2] = target: Rfa3 OB domain (DBD-E), residues 1-99, without the C-terminal trimerisation helix (S. cerevisiae) (UniProt P26755); experiment: MST; 50 nM NT-495-labelled DBD-E mixed with equal volumes of a dilution series of DBD-A; 20 mM Tris pH 7.5, 150 mM NaCl, 0.5 mM TCEP, 0.01% Tween-20, 0.1 mg/ml BSA; 25 °C; no ssDNA (black trace); apparent EC50 from the Hill equation

Sequence of Rfa3 OB domain (DBD-E), residues 1-99, without the C-terminal trimerisation helix (S. cerevisiae) (P26755 1-99): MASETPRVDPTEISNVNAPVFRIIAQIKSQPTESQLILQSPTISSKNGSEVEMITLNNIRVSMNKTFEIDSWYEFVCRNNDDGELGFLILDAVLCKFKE
Sequence of Rfa1 DNA-binding domain A (DBD-A), residues 178-294 (P22336 178-294): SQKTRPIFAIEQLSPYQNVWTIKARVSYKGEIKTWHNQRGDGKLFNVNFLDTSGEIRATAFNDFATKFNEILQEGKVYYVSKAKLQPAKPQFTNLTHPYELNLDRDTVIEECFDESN

EC50 [1]	EC50 [2]	Substance
84 µM	96 µM	Rfa1 DNA-binding domain A (DBD-A), residues 178-294 (from UniProt P22336 178-294) (domain or fragment)
25 µM	23 µM	Rfa1 DNA-binding domain A (DBD-A), residues 178-294, phosphomimetic S178D mutant (from UniProt P22336 178-294) (domain or fragment)
